Assay results: patent US20190077860A1 (EISAI R AND D MANAGEMENT, published 2019)
Where a chain is given by its changes, count along the chain named. Blank lines part the entries; values can stand above or below the binder they belong to.

Key:
Test in all cases: ELISA
[1] = biological target: T1, human EphA5 extracellular region-SEAP-His protein (human, UniProt P54756 25-573)
T1 construct: extracellular domain; also called hEphA5-SEAP-His

[2] = biological target: T2, human EphB6 extracellular region-SEAP-His protein (human, UniProt O15197 32-594)
T2 construct: extracellular domain; also called hEphB6-SEAP-His
T2 sequence (looked up): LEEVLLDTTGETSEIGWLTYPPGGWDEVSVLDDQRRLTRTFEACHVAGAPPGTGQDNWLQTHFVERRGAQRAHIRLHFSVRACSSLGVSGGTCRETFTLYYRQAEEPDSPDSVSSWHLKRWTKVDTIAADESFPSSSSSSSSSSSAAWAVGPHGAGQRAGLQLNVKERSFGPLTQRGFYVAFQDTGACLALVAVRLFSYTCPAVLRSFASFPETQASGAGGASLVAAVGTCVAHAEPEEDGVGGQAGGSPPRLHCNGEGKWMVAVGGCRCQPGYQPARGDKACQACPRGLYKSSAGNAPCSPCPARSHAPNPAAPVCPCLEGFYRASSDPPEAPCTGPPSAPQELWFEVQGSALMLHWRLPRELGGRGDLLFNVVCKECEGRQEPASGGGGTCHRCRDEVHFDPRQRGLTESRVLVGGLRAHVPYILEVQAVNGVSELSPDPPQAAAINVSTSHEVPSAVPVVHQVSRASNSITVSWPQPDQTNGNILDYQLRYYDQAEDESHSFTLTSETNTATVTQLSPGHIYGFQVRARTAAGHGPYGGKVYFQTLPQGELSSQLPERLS

[3] = biological target: T3, human EphB2 extracellular region-SEAP-His protein (human, UniProt P29323 19-543)
T3 construct: extracellular domain; also called hEphB2-SEAP-His
T3 sequence (looked up): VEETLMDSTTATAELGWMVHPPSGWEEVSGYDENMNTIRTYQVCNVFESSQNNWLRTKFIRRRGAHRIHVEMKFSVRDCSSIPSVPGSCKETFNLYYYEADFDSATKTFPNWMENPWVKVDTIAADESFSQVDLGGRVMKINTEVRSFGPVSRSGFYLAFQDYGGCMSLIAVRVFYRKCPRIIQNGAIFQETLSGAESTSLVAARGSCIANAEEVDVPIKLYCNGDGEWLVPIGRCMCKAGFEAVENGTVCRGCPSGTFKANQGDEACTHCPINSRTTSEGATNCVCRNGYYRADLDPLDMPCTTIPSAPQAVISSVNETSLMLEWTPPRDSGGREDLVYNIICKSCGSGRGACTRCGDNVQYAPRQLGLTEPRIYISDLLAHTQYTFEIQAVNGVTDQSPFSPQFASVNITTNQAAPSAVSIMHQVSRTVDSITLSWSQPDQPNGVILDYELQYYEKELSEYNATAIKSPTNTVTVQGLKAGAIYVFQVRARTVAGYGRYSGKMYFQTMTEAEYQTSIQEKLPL

[4] = biological target: T4, human EphB3 extracellular region-SEAP-His protein (human, UniProt P54753 34-559)
T4 construct: extracellular domain; also called hEphB3-SEAP-His
T4 sequence (looked up): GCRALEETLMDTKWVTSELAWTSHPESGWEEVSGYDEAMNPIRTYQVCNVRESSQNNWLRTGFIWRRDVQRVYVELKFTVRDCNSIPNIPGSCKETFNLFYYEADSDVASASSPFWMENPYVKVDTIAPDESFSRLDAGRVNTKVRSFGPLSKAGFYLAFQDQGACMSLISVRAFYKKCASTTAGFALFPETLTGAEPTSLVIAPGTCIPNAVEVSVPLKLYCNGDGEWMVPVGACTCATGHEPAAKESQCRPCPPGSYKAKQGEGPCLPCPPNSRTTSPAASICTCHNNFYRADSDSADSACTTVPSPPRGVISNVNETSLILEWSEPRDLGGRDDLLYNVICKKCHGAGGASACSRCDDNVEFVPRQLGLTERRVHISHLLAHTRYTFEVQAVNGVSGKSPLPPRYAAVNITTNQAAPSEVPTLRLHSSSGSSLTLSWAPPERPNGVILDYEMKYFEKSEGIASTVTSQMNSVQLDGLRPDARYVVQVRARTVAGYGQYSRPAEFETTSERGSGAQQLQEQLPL

[5] = biological target: T5, human EphA6 extracellular region-SEAP-His protein (human, UniProt Q9UF33 23-550)
T5 construct: extracellular domain; also called hEphA6-SEAP-His
T5 sequence (looked up): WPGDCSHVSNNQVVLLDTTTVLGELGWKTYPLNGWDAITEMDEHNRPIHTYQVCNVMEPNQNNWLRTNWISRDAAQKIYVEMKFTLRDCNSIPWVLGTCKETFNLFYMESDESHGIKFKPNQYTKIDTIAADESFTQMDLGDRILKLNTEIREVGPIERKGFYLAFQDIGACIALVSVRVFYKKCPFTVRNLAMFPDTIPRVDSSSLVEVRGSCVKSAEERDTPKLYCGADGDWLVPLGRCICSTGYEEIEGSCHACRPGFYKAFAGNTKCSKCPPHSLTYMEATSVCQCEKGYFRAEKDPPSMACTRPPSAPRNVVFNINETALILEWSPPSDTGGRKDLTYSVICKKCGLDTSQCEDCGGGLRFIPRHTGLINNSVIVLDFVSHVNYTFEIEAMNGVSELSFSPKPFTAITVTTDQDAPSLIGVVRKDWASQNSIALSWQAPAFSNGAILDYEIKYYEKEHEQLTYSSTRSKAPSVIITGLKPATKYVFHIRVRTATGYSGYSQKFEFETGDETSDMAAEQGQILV

T1 sequence (P54756 25-573): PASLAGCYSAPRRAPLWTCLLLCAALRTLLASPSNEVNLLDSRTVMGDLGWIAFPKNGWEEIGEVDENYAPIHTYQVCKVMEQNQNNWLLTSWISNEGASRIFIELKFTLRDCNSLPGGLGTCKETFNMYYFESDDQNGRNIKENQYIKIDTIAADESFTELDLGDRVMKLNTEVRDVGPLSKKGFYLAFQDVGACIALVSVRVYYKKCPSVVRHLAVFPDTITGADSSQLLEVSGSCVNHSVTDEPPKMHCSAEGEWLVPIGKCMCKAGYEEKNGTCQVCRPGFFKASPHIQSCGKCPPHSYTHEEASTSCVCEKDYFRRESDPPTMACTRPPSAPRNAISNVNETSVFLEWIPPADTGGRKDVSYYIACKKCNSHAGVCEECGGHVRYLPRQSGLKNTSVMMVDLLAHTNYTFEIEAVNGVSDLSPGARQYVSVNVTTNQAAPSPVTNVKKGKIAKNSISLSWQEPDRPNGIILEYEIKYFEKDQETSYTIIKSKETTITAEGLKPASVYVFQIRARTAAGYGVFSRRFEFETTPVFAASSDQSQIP

A450 as % of hEphA4-SEAP-His [1]: 5.7%
A450 as % of hEphA4-SEAP-His [2]: 5.6%
A450 as % of hEphA4-SEAP-His [3]: 5.6%
A450 as % of hEphA4-SEAP-His [4]: 5.6%
A450 as % of hEphA4-SEAP-His [5]: 9.7%
B1: humanized antibody No. 142 (antibody, human IgG2)
heavy: QVQLVQSGSELKKPGASVKVSCKASGYTFTDYSMHWVRQAPGQGLKWMGWINTETGEPTYADDFKGRFVFSLDTSVSTAYLQISSLKAEDTAVYYCARIPLYYYGSRYWYFDVWGQGTTVTVSSASTKGPSVFPLAPSSRSTSESTAALGCLVKDYFPEPVTVSWNSGALTSGVHTFPAVLQSSGLYSLSSVVTVPSSNFGTQTYTCNVDHKPSNTKVDKTVERKSCVECPPCPAPPAAAPSVFLFPPKPKDTLMISRTPEVTCVVVDVSHEDPEVQFNWYVDGVEVHNAKTKPREEQFNSTFRVVSVLTVVHQDWLNGKEYKCKVSNKGLPAPIEKTISKTKGQPREPQVYTLPPSREEMTKNQVSLTCLVKGFYPSDIAVEWESNGQPENNYKTTPPMLDSDGSFFLYSKLTVDKSRWQQGNVFSCSVMHEALHNHYTQKSLSLSPG
light: DIQMTQSPSSLSASVGDRVTITCRASENIYRNLAWYQQKPGKAPKLLVYAATNLADGVPSRFSGSGSGTDYTLTISSLQPEDFATYYCQHFWGTPWTFGQGTKVEIKRTVAAPSVFIFPPSDEQLKSGTASVVCLLNNFYPREAKVQWKVDNALQSGNSQESVTEQDSKDSTYSLSSTLTLSKADYEKHKVYACEVTHQGLSSPVTKSFNRGEC
notes: human Ig kappa; also called L1-4/HK2

A450 as % of hEphA4-SEAP-His [1]: 6.1%
A450 as % of hEphA4-SEAP-His [2]: 6.3%
A450 as % of hEphA4-SEAP-His [3]: 6.2%
A450 as % of hEphA4-SEAP-His [4]: 6.4%
A450 as % of hEphA4-SEAP-His [5]: 9%
B2: humanized antibody No. 157 (antibody, human IgG2)
heavy: B1 heavy with K46E, D62Q, D63G, K65T
light: B1 light with K45Q, V48L
notes: human Ig kappa; also called L1-6/HA1

A450 as % of hEphA4-SEAP-His [1]: 6.6%
A450 as % of hEphA4-SEAP-His [2]: 6.6%
A450 as % of hEphA4-SEAP-His [3]: 6.7%
A450 as % of hEphA4-SEAP-His [4]: 6.7%
A450 as % of hEphA4-SEAP-His [5]: 8.6%
B3: humanized antibody No. 145 (antibody, human IgG2)
heavy: B1 heavy
light: B1 light with V48L, P80S
notes: human Ig kappa; also called L1-5/HK2

A450 as % of hEphA4-SEAP-His [1]: 5.5%
A450 as % of hEphA4-SEAP-His [2]: 5.5%
A450 as % of hEphA4-SEAP-His [3]: 5.4%
A450 as % of hEphA4-SEAP-His [4]: 5.5%
A450 as % of hEphA4-SEAP-His [5]: 7.6%
B4: humanized antibody No. 159 (antibody, human IgG2)
heavy: B1 heavy
light: B1 light with K45Q, V48L
notes: human Ig kappa; also called L1-6/HK2

A450 as % of hEphA4-SEAP-His [1]: 5.6%
A450 as % of hEphA4-SEAP-His [2]: 5.9%
A450 as % of hEphA4-SEAP-His [3]: 5.7%
A450 as % of hEphA4-SEAP-His [4]: 5.8%
A450 as % of hEphA4-SEAP-His [5]: 8.1%
B5: humanized antibody No. 144 (antibody, human IgG2)
heavy: B1 heavy with K46E
light: B1 light with K45Q, V48L
notes: human Ig kappa; also called L1-6/HK1

A450 as % of hEphA4-SEAP-His [1]: 5.7%
A450 as % of hEphA4-SEAP-His [2]: 5.7%
A450 as % of hEphA4-SEAP-His [3]: 5.5%
A450 as % of hEphA4-SEAP-His [4]: 5.6%
A450 as % of hEphA4-SEAP-His [5]: 8.9%
B6: humanized antibody No. 156 (antibody, human IgG2)
heavy: B1 heavy with V2I, D62Q, D63G, K65T
light: B1 light with K45Q, V48L
notes: human Ig kappa; also called L1-6/HA4

A450 as % of hEphA4-SEAP-His [1]: 5.6%
A450 as % of hEphA4-SEAP-His [2]: 5.6%
A450 as % of hEphA4-SEAP-His [3]: 5.5%
A450 as % of hEphA4-SEAP-His [4]: 5.5%
A450 as % of hEphA4-SEAP-His [5]: 7.2%
B7: humanized antibody No. 155 (antibody, human IgG2)
heavy: B1 heavy with V2I
light: B1 light with V48L, P80S
notes: human Ig kappa; also called L1-5/HK4
